# Reference: the DeepSol protein solubility set
# Assay: soluble on expression in E. coli; label from the status in PepcDB or PDB records
row,Sequence,soluble on expression in E. coli
1,GPGSMSGGSTALKLQRLLEAEGAVIHSALQVRALPSMGGGMGVVLTERLAAGAVLARFPFRSMITARKARFNLAMAEVALELLEGHVATASTNNGSEGDNGSAGPCAATDVLHVIPFASRVWSEYEFETRVRSRRLRQLIDAKVEELAGALDSTETIVCYVLLMAALYGRLSKHARLRRSGADDGAADEEASVSGTEACACGDEAGPAPTLHYTHENAWMRTWIHALPAQYDNLLELVPVPEDSPPCLAQHGTEPECAARAPSVLSGNATTASPPPPLLARVSAYTKSSGWLRSYISLCRFQASVAREQQAIQRRHAKCCAALRCLQRLPRGVEVTEELADAGHGAAAPQNRVFASCGSSPSSSQQDCGRHDHGAACTLGQFLWAFNTLMSRGFYFPEATWALMPFVDYFNYALESNGTMYPQEDDPEDPGCFTNLLLAKTSRNGIGSVAPLMAAAAPRKQQWRTALRTARVGKAAVPLANYQTYEFQLVRPTCPPSEQVMLHYGAYSDVELLMWYGFTLRPSLLPAPQLAAAPEGRKKGTIPVLPPCLSDADGSLLHAAHGLRLALSQLASATTRVAYYRRWVAPLHRCDGAAASDADAAAACKTWLAALHCAYRLPLSPIANAEGKYPEATPGATWLDELLSAFAQTPAVAAPCTDAASEDEAAYRIDAWMRRWGSERWPGFAASAFPNITKGCAFGVLGLSPVLRAAVHSSFWTPTPERSSLSAGERLLVVRGLAWAELYVNMTAAAHADGWTTSSVPASAAAAECARTMSVDQWTLLRFLALESTDAALEEYVEYVSESEG,not soluble
2,GPGSMSIHQTKVCSVNEPLSNPDDSALEYCVEAQSPVNRTTSTWEFRSKLFPHAFAAVLDTDLSESETTQRELAEWTRKRCRNYERQGDILRSQLGVLVSSGAANGKRSDADDGDDEAFLVGLGEWSLQESSSQYLNSAKKKKCHRQLRCKDSYESALLLERQWSERHAVSLKHSCMKGAHPTPAAQNFELGCAKDLCRDASSVEIHSITPAASVVAAEKTRSVTACEPPTEQERKKNRGVASEHEGTQNFAEHLVVQYFIPDGSEAESGKSSNDTRGGACGRGLYSMPLSVFRYHYPQLLLDFLLQHSVVMESS,not soluble
3,GPGSMSLLNTTLQTLVVRLRDMSGNVTQQKLHNRVFDAYEAKSLVFEAISPEQQAVMQQFGTIPSQHPAGQPVLLDGWADLLTVHREDNLYQLLPRRAKNNASYSTMRAICCSAGSPFTMDHRVDPIDYKFVFRAADMEVRNKFNATNQDKIPPTIWFDGILSAPNDSGLVSCHNSLSPAHINNLAGTYQFLKEWSNEPPEGDRHRQLKEMYSNLLSKRTHLFIGSSSVPGREILNYARSKNVFVYAKRGMHYVFHA,not soluble
4,GPGSMSQEGGKSEPDANEKEQRNQKLRLGLEAMFCAQEIPSEKRTDIESDGEEVPPSITRDEDRYRQVAEAILRIDTKSKIIEINNIRLFSVAEIELDKLTECTSLSLRKNLLHDLIPFPEDLADRLDELDLFDNKIRKLNDFFETVTVPGDPPTTKTLPNAYKCLTKLDLSYNQIREIGGLDSIGGTLRELYLVENKIKEVKNLDSLVNLELLELGGNRLRAIGSGLEKLTKLKQLWLGKNKISSIGTALHKLVSLEILSLQANRITSVDAENFLGAKANPNLREVYLSENGLTSVGNVRHLSTIKIIDFSFNSICSIDAEEINPQTMPKLEEFWLTDGNIADWEEVGKLSGFTSTLKTVYLERNPIEEDKRYRDKVYMYLPFLVQIDSWPIVNKGNLEADRKRKA,not soluble
5,GPGSMTSTVTAVNQTQSLAAIRNFVRASVSCITYARGLCSDNAYEQRPFLGLPLRQLIPSTTESITISEWIEKGAFDALNRNYLKEMSLCVYDAACHELLESYCFGFNYTGDGERAQMTLNASQTIADGSKTTAVSQSSGGAVGIPAYRKRRCTKQEVQHLLTSILERLMDVVESLPPLLSERVLTMRLTYYDAVTPASYEPPCFAPASEHMARLYQAEVKHHVNIGSMDTSHHLFSVAIRHPLLQQIHRQMTGRTTSAVATKT,not soluble
6,GPGSMTSVETRIQALVQRYTLMENNINKLRKALASLGEGQQNANTTPRNEATAVAHHRDPCDLKELQPCPQDTPEVAALRRWCIEHSLTTAVFRWVPSDYYQHTLQWRRDELAAPSVHHLCKSILMENTHCTNKDCGVRENSRYYLIVYPYTEKFDAEMVMRHVKGLNEGLGKKKFNFRLAAPDVALQLTGFGHGAVAPFGTPTEIPVILSDKILQLTPAVFWMGGGHVDCKVRVDVEQFMEVIKPIVASVTTPLSAEELGQLVD,soluble
7,GPGSMWFGTKNQRKAPQIPFPKRNKTKQRRASRRVRARVRTGNKPEHAIGGTGCASSRMRRGLDGSNTAAPGCDVSSHLSTPVHRPLRCAQPLFVFKSTSLRASLRNTCHHARHRARPYAHGSVSPPLSPSLAYFPQRSKGSRTPAYRWDCTVTRRSWSAHGSASTLVCARVRRSAPFTIGRANDRQRSAAEGDDARTPAHLTTLSTRSQQPKQAKQNTGSSMNSAGTGAPAKAAGVSASSLSMPKHKLVLLGDQSVGKTSIITRFMYDTFDQQYQPTIGIDFFSKTVHLDDDRDVRLHLWDTAGQERFHSLIPSYIRNSAATVVVYDITSRPTFFSAFKWIDEVRSESGADVVIMLVGNKVDQASERREVSAEEAMKKASECSVLFMEVSAKHGTNIKHMFRQVAAALPAPASTGGGAGVTGATSSSAGGVGAAGASGSGASAPGISAGQFGGIVRSPFLITPSAMQAASNGTGGAGEADGANPNAQGGRGGACC,not soluble
8,GPGSMWVCGEAVLMRALNLLHARVRRCMRFSCRIPPQYCECPCRRMRVCPLRRDVSLIVLLFGLTPTTFSFSATSHDASRTKATRTHTHTHTPLFPARPMGSPLIAVIGPNPAFQKTLALDELRVDEVNRAATVHSYTGGKGTNFCRASACCKESPHFCRTTLHTFVGGKTGERVIDLLHQEGIAVYPVTVPAETRTCITCLDTQNSTMTELIEPSAAVPDDAAKDMDRALLKALEHAGGMAIMGSLPDGSSPDLYTRWTEMAAAAQKPVLIDAVKGIEASLKVPGVHSILKVNMRELNKLTGQSTPESAFEYAMQMWTVRVLAVTDGPRSAYIQERGQPLQVVHIPKVDGVVSPLGAGDTADAIFLAKYIHGTTPVEAFRLALAAASANCLQKEAGVFAQHEMRRIADGITIGSSRPHSSSNTRA,not soluble
9,GPHSLRYFVTAVSRPGLGEPRFIAVGYVDDTQFVRFDSDADNPRFEPRAPWMEQEGPEYWEEQTQRAKSDEQWFRVSLRTAQRYYNQSKGGSHTFQRMFGCDVGSDWRLLRGYQQFAYDGRDYIALNEDLKTWTAADTAALITRRKWEQAGDAEYYRAYLEGECVEWLRRYLELGNETLLRTDSPKAHVTYHPRSQVDVTLRCWALGFYPADITLTWQLNGEDLTQDMELVETRPAGDGTFQKWAAVVVPLGKEQNYTCHVHHKGLPEPLTLRWKLPPSTVSN,soluble
10,GPHSLRYFVTAVSRPGLGEPRFISVGYVDNTEFVRFDSDAENPRYEPRARWMEQEGPEYWERETQKAKGNEQSFRVDLRTLLGYYNQSKGGSHTIQVISGCEVGSDGRLLRGYQQYAYDGCDYIALNEDLKTWTAADMAALITKHKWEQAGEAERLRAYLEGTCVEWLRRYLKNGNATLLRTDSPKAHVTHHSRPEDKVTLRCWALGFYPADITLTWQLNGEELIQDMELVETRPAGDGTFQKWASVVVPLGKEQYYTCHVYHQGLPEPLTLRWEPPPST,soluble
11,GPLENWFTEFDIKPLASASIAQVHTARLKDTNQEVVLKVIRPDIRPVIDSDLKLMHRMARIVAGAMPEARRLKPVEVVREYEKTLLDELDLRREAANAIQLRRNFEGSEELYVPEVFPDFS,not soluble
12,GPLGSAQTLQMEIPNFGNSILECLNEQRLQGLYCDVSVVVKGHAFKAHRAVLAASSSYFRDLFNNSRSAVVELPAAVQPQSFQQILSFCYTGRLSMNVGDQDLLMYTAGFLQIQEIMEKGTEFFLKVSS,soluble
13,GPLGSGGLFFNALKNCKENFTVLQTIRQQQSTLNGSWVALLQTRNTLNRAGIRYMMDQNNIGSGSTVAELMESASISLKQAEKNWADYEALPRDPRQSTAAAAEIKRNYDIYHNALAELIQLLGAGKINEFFDQPTQGYQDGFEKQYVAYMEQNDRLHDIAVSDNNASYSHHHHHH,soluble
14,GPLGSPEFGYWITCCPTCDVDINTWVPFYSTELNKPAMIYCSHGDGHWVHAQCMDLEERTLIHLSEGSNKYYCNEHVQIARA,soluble
15,GPLGSSWLFLEVIAGPAIGLQHAVNSTSSSKLPVKLGRVSPSDLALKDSEVSGKHAQITWNSTKFKWELVDMGSLNGTLVNSHSISHPDLGSRKWGNPVELASDDIITLGTTTKVYVRISSQNEFQIPFKIGVASDPMA,soluble
16,GPLHMVKVALAGCPNVGKTSLFNALTGTKQYVANWPGVTVEKKEGVFTYKGYTINLIDLPGTYSLGYSSIDEKIARDYLLKGDADLVILVADSVNPEQSLYLLLEILEMEKKVILAMTAIDEAKKTGMKIDRYELQKHLGIPVVFTSSVTGEGLEELKEKIVEYAQKNTILHRMILDYGEKVESEIKKVENFLRDKKLRINPRYFALKYLSGDPEFYSEGVKLGLPELSEEERIGYRLLIAKRKREYVENVVKEAFAD,soluble
17,GPRRTRTTFTSSQIAELEQHFLQGRYLTAPRLADLSAKLALGTAQVKIWFKNRRRRHKIQSDQHKDQS,soluble
18,GPSASLLVQNGTLNVGDAIVVGNTYGRIRAMVNDLGQRIKTAGPSTPVEITGINDVPQAGDRFV,soluble
19,GPVNPAENFRVLVKQKKASFEEASNQLINHIEQFLDTNETPYFMKSIDCIRAFREEAIKFSEEQRFNNFLKALQEKVEIKQLNHFWEIVVQDGITLITKEEASGSSVTAEEAKKFLAPKD,soluble
20,GPVWRKHYITYRINNYTPDMNREDVDYAIRKAFQVWSNVTPLKFSKINTGMADILVVFARGAHGDDHAFDGKGGILAHAFGPGSGIGGDAHFDEDEFWTTHSGGTNLFLTAVHEIGHSLGLGHSSDPKAVMFPTYKYVDINTFRLSADDIRGIQSLYGDPKENQRLPNPDNSEPALCDPNLSFDAVTTVGNKIFFFKDRFFWLKVSERPKTSVNLISSLWPTLPSGIEAAYEIEARNQVFLFKDDKYWLISNLRPEPNYPKSIHSFGFPNFVKKIDAAVFNPRFYRTYFFVDNQYWRYDERRQMMDPGYPKLITKNFQGIGPKIDAVFYSKNKYYYFFQGSNQFEYDFLLQRITKTLKSNSWFGC,soluble
